The data set deals with phosphotyrosine peptide (Upstate).

B1: PTP1B (from Upstate) (protein)
chain: MEMEKEFEQIDKSGSWAAIYQDIRHEASDFPCRVAKLPKNKNRNRYRDVSPFDHSRIKLHQEDNDYINASLIKMEEAQRSYILTQGPLPNTCGHFWEMVWEQKSRGVVMLNRVMEKGSLKCAQYWPQKEEKEMIFEDTNLKLTLISEDIKSYYTVRQLELENLTTQETREILHFHYTTWPDFGVPESPASFLNFLFKVRESGSLSPEHGPVVVHCSAGIGRSGTFCLADTCLLLMDKRKDPSSVDIKKVLLEMRKFRMGLIQTADQLRFSYLAVIEGAKFIMGDSSVQDQWKELSHEDLEPPPEHIPPPPRPPKRILEPHN
Consider B1, for which the “in vitro phosphatase activity (malachite green, released phosphate)” value (“in vitro phosphatase activity” for short) is on record as “PTP1B, a bona fide PTPase, dephosphorylated p-Tyr exclusively”.

B2: GST-tagged recombinant PTPsigma catalytic fragment (PTPRS-CTF; BC104812 aa1156-1501) (protein)
chain: IVMVPLRKSRGGQFLTPLGSPEDMDLEELIQDISRLQRRSLRHSRQLEVPRPYIAARFSVLPPTFHPGDQKQYGGFDNRGLEPGHRYVLFVLAVLQKSEPTFAASPFSDPFQLDNPDPQPIVDGEEGLIWVIGPVLAVVFIICIVIAILLYKNKPDSKRKDSEPRTKCLLNNADLAPHHPKDPVEMRRINFQTPDSGLRSPLREPGFHFESMLSHPPIPIADMAEHTERLKANDSLKLSQEYESIDPGQQFTWEHSNLEVNKPKNRYANVIAYDHSRVILQPIEGIMGSDYINANYVDGYRCQNAYIATQGPLPETFGDFWRMVWEQRSATIVMMTRLEEKSRIKC
B2: the “in vitro phosphatase activity” value was “exhibiting significant activity against a tyrosine-phosphorylated peptide (p-Tyr)”.

B3: GST-tagged recombinant full-length MTMR6 (NM-004685.2) (protein)
chain: MEHIRTTKVEQVKLLDRFSTSNKSLTGTLYLTATHLLFIDSHQKETWILHHHIASVEKLALTTSGCPLVIQCKNFRTVHFIVPRERDCHDIYNSLLQLSKQAKYEDLYAFSYNPKQNDSERLQGWQLIDLAEEYKRMGVPNSHWQLSDANRDYKICETYPRELYVPRIASKPIIVGSSKFRSKGRFPVLSYYHQDKEAAICRCSQPLSGFSARCLEDEHLLQAISKANPVNRYMYVMDTRPKLNAMANRAAGKGYENEDNYSNIRFQFVGIENIHVMRSSLQKLLEVNGTKGLSVNDFYSGLESSGWLRHIKAVMDAAIFLAKAITVENASVLVHCSDGWDRTSQVCSLGSLLLDSYYRTIKGFMVLIEKDWISFGHKFSERCGQLDGDPKEVSPVFTQFLECVWHLTEQFPQAFEFSEAFLLQIHEHIHSCQFGNFLGNCQKEREELKLKEKTYSLWPFLLEDQKKYLNPLYSSESHRFTVLEPNTVSFNFKFWRNMYHQFDRTLHPRQSVFNIIMNMNEQNKQLEKDIKDLESKIKQRKNKQTDGILTKELLHSVHPESPNLKTSLCFKEQTLLPVNDALRTIEGSSPADNRYSEYAEEFSKSEPAVVSLEYGVARMTC
In the case of B3, the “in vitro phosphatase activity” value is recorded as “only negligible activity against p-Tyr”.

(Values after patent US20120045459.)
